This assay has as its target HLA class I-A2 molecule (human) (UniProt P04439). The experiment in a line: T2 binding assay, peptide 50 µg/ml for 24 h, anti-HLA-A2 mAb, flow cytometry; cut off for positivity 100. (Flow cytometry measures light scatter and fluorescence of single cells or particles in a stream.)

Consider 1 substance from patent US6946133.

Substance “PSA [42-51] (from UniProt P07288 66-75) (peptide)” had a T2 binding, relative fluorescence (mean intensity) of 51.4.
